From patent EP4725965A1 (Sunshine Guojian Pharmaceutical (Shanghai) Co., Ltd., dated 2026)
Substitutions are numbered along the chain they refer to. Like-named read-outs stand apart in the source and are kept apart here. Blank lines part the entries; values can stand above or below the molecule they belong to.

Tests used:
[1] = biological target: human BDCA2 on cells (293FT-BDCA2 stable transfectant) (human) (UniProt Q8WTT0); test: flow cytometry (FACS) on 293FT-BDCA2 cells
[2] = biological target: T1, human BDCA2-his protein (human, UniProt Q8WTT0 45-213); test: SPR, Biacore 8K, antibody captured on Protein A chip, BDCA2-his as analyte
T1 construct: also called BDCA2-his antigen protein
T1 sequence: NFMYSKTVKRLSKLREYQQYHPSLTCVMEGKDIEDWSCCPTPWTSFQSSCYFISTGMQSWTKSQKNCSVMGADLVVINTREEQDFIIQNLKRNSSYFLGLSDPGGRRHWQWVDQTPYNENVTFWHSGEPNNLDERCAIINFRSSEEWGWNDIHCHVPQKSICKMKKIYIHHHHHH

[3] = biological target: T2, human BDCA2-Fc protein (human, UniProt Q8WTT0 45-213); test: ELISA, BDCA2-Fc coated at 1 ug/mL
T2 sequence: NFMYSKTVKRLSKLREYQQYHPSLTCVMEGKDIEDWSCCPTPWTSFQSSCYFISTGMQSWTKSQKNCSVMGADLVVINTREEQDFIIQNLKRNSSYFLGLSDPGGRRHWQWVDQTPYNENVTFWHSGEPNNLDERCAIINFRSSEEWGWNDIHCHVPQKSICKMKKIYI

[4] = biological target: human BDCA2 on cells (293FT-BDCA2 stable transfectant) (human) (UniProt Q8WTT0); test: flow cytometry (FACS) on 293FT-BDCA2 cells; remark: listed apart in the source
[5] = biological target: T3, human BDCA2 on cells (293FT-BDCA2 stable transfectant) (human, UniProt Q8WTT0 1-213); test: flow cytometry (FACS) on 293FT-BDCA2 cells
T3 construct: whole, on cells; Also used here as the target for the PBMC assays, where native BDCA2 stands on pDCs; also called CLEC4C
T3 sequence (looked up): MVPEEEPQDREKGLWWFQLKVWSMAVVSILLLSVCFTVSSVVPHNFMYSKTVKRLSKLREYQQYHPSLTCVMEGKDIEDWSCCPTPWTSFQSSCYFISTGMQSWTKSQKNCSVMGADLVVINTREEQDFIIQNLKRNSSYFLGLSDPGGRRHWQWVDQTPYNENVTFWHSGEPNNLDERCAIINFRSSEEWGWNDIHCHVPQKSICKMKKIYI

[6] = biological target: T1, human BDCA2-his protein; test: ELISA, BDCA2-his coated at 0.1 ug/mL, anti-human Fc HRP

EC50 [1]: 0.124 µg/mL | Kd [2]: 0.087 nM | koff [2]: 0.000121 s⁻¹ | kon [2]: 1.39e+06 M⁻¹ s⁻¹ | EC50 [3]: 0.0346 µg/mL | EC50 ([3]; record 2): 0.0463 µg/mL | EC50 [4]: 0.103 µg/mL
Molecule: positive control antibody Litifilimab (BIIB059, 24F4A)

EC50 [5]: 0.0835 µg/mL | EC50 [3]: 0.0201 µg/mL
B1: 23C10A6B5 (antibody, V domains shown)
VH: QVQLQQPGADLVKPGASVMMSCKASGYTFTSYIIHWVKQTPGQGLEWIGTIYPGNGDTSYNQKFKGKATLTADKSSSTAYMQLSSLTSEDSAVYYCARMGDNEYFDYWGQGTTLTVSS
VL: DIQMTQSPASLSASVGETVTITCRASGNIHNYLAWYQQKQGKSPQLLVYDAETLADGVPSRFSGSGSGTQYSLNINSLQPEDFGSFYCQHFWSTPYTFGGGTKLEIK
notes: Murine monoclonal antibody from hybridoma; also called hybridoma clone 23C10A6B5

Kd [2]: 0.0768 nM | koff [2]: 0.00131 s⁻¹ | kon [2]: 1.7e+07 M⁻¹ s⁻¹
B2: humanized antibody 230 (antibody, V domains shown)
VH: QVQLVQSGAEVKKPGASVKVSCKASGYTFTSYIIHWVRQAPGQGLEWMGTIYPGNGDTSYNQKFKGRVTMTRDTSTSTVYMELSSLRSEDTAVYYCARMGDNEYFDYWGQGTLVTVSS
VL: DIQMTQSPSSLSASVGDRVTITCRASGNIHNYLAWYQQKPGKAPKLLLYDAETLADGVPSRFSGSGSGTDYTLTISSLQPEDFATYYCQHFWSTPYTFGGGTKVEIK
notes: Human IgG1 constant region and human kappa chain constant region; also called 230 antibody; parental monoclonal antibody 230

Kd [2]: 0.0259 nM | koff [2]: 0.000652 s⁻¹ | kon [2]: 2.52e+07 M⁻¹ s⁻¹
B3: antibody 237011 (antibody, human IgG1, V domains shown)
VH: B2 VH with I33L, N55G
VL: B2 VL with D56E

binding result [6]: binds
B4: 230-N55S (antibody, V domains shown)
VH: B2 VH with N55S
VL: B2 VL
notes: Single-point mutant of humanized antibody 230 (human IgG1/kappa)

Kd [2]: 0.0357 nM | koff [2]: 0.000874 s⁻¹ | kon [2]: 2.44e+07 M⁻¹ s⁻¹
B5: antibody 2391 (antibody, human IgG1, V domains shown)
VH: B2 VH with N55G
VL: B2 VL with D56E

binding result [6]: binds
B6: 230IL-NR-DE (antibody, V domains shown)
VH: B2 VH with I33L, N55R
VL: B2 VL with D56E
notes: Linked to the constant region of the IgG1 subtype

binding result [6]: binds
B7: antibody 230 mutant with light chain CDR2 DAETLAD changed to DAETLAI (antibody, V domains shown)
VH: B2 VH
VL: B2 VL with D56I
notes: Single-point mutant of humanized antibody 230; also called 230 antibody-DI

binding result [6]: binds
B8: 230IL-NR-DI (antibody, V domains shown)
VH: B2 VH with I33L, N55R
VL: B2 VL with D56I
notes: as for B6

binding result [6]: binds
B9: 230NR-DE (antibody, V domains shown)
VH: B2 VH with N55R
VL: B2 VL with D56E
notes: as for B6

binding result [6]: binds
B10: 230-N55R (antibody, V domains shown)
VH: B2 VH with N55R
VL: B2 VL
notes: as for B4

binding result [6]: binds
B11: 230NG-DI (antibody, V domains shown)
VH: B2 VH with N55G
VL: B2 VL with D56I
notes: as for B6

binding result [6]: binds
B12: 230IL-DI (antibody, V domains shown)
VH: B2 VH with I33L
VL: B2 VL with D56I
notes: as for B6

binding result [6]: binds
B13: 230-N55A (antibody, V domains shown)
VH: B2 VH with N55A
VL: B2 VL
notes: as for B4

binding result [6]: binds
B14: 230NR-DI (antibody, V domains shown)
VH: B2 VH with N55R
VL: B2 VL with D56I
notes: as for B6

binding result [6]: binds
B15: 230IL-NG-DI (antibody, V domains shown)
VH: B2 VH with I33L, N55G
VL: B2 VL with D56I
notes: as for B6

binding result [6]: binds
B16: antibody 230 mutant with light chain CDR2 DAETLAD changed to DAETLAE (antibody, V domains shown)
VH: B2 VH
VL: B2 VL with D56E
notes: Single-point mutant of humanized antibody 230; also called 230 antibody-DE

binding result [6]: binds
B17: 230IL-DE (antibody, V domains shown)
VH: B2 VH with I33L
VL: B2 VL with D56E
notes: as for B6

binding result [6]: binds
B18: 230-I33L (antibody, V domains shown)
VH: B2 VH with I33L
VL: B2 VL
notes: as for B4

binding result [6]: binds
B19: 230-N55G (antibody, V domains shown)
VH: B2 VH with N55G
VL: B2 VL
notes: as for B4
